This assay deals with polyketide synthase 16 (Pks16) (Dictyostelium discoideum (endogenous in AX2-214 cells)) (UniProt Q869W9). Nature of the assay: cryo-EM structure; shotgun EM of endogenous assemblies in a heterogeneous pool of SEC and mixed-bed IEX fractions of D. discoideum lysate; 50 mM Hepes pH 7.4, 100 mM NaCl, 3 mM MgSO4, 0.1 mM EGTA, 1 mM DTT, 2% glycerol; 200 kV Glacios; proteins identified by MS of the same sample; AlphaFold 3 models fitted into the maps.

One substance from publication PMC12828403 can be followed below.

Consider “polyketide synthase 16 (Pks16), Q869W9 1-2603”, for which the stoichiometry N (usually the number of molecules, sites or subunits per partner or assembly) came out at 2.
